From patent US12410262B2, “Peptide conjugates of cytotoxins as therapeutics” (Cybrexa 2, Inc., priority 2019, dated 2025) come the findings set out here.

SMILES strings stand for the structures. pIC50: −log10 of the molar value.

Data set [1] is described as follows: Glutathione cleavage study. In kind it is in vitro ADME. The conditions noted are these: Tris buffer with 10 mM glutathione, Glutathione Challenge (10 mM), 100 μM conjugate, Tris pH 7.5, 37° C. In outline: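 Conjugate stocks at 20 mM in 100% DMSO were diluted in 100 mM Tris, pH 7.5, to a final 100 μM. Freshly made glutathione was added to 10 mM, and samples were incubated at 37° C. for up to 24 hrs. Samples were extracted with phosphoric acid and acetonitrile/0.1% TFA, centrifuged, and analyzed by HPLC, with peak areas compared to the time-0 conjugate peak.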

Data set [2] concerns HCT116. The experiment in a line: cells. The conditions noted are these: 96 h. It is filed as cell-based, human. In outline: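 DLD-1 WT (2500/well), FaDu and HeLa (5000/well) and HCT116 (3000/well) were grown in 10% FBS media and dosed in triplicate 24 h after plating. After 96 h of drug exposure at 37 °C, cells were fixed, Hoechst-stained and counted by imaging; percent growth delay was calculated versus untreated controls.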

Data set [3] has as its system HCT116 xenografts. The experiment in a line: Tumor and bone marrow pharmacokinetics in a mouse model. It is filed as in vivo, athymic nude Foxn^nu mice. The conditions noted are these: mouse bearing HCT116 xenograft, single IP dose 10 mg/kg. As for the experimental part: Six-week-old female athymic nude Foxn^nu mice were obtained from Taconic Labs (Cat #NCRNU-F) and were housed 5 per cage on Alpha-Dri bedding in a disposable caging system (Innovive). Human HCT116 cancer cells derived from colorectal carcinoma were diluted 1:1 in Phenol Red-free Matrigel and subcutaneously implanted into the left flank of each mouse at a density of 2.5×10^6 cells in 100 μL. When xenografts reached a minimal volume of 300 mm^3, mice were administered a single intraperitoneal injection of 10 mg/kg Compound 11 prepared in a vehicle of 5% mannitol in citrate. Tumor and bone marrow samples were collected from fed, anesthetized mice at 1, 2, 4, 8, 16, 24, 32 and 48 hours after compound administration. Total peptide concentrations in tumor and bone marrow were determined via ELISA.
96-well plates were coated with 100 μL/well of 0.1 μM BSA-labelled peptide prepared in 0.2 M Carbonate-Bicarbonate Buffer, pH 9.4 and incubated overnight at 4° C. Plates were washed 4× with an ELISA wash buffer (PBS+0.05% Tween 20), incubated for 2 hours at room temperature with Blocking Buffer (PBS+5% dry milk+0.05% Tween 20) (300 μL/well) and washed again 4× with ELISA wash buffer. […] Luminescence was read from the plate on a BioTek Cytation 5 plate reader.

Data set [4] can be described thus: Bone marrow toxicity study in a mouse model. It is filed as in vivo, athymic nude Foxn^nu mice. Particulars: 2.6 and 5.2 μmoles/kg (10, 20 mg/kg) IP once daily for 4 days. On the procedure:
Six-week-old female athymic nude Foxn^nu mice were obtained from Taconic Labs (Cat #NCRNU-F) and were housed 5 per cage on Alpha-Dri bedding in a disposable caging system (Innovive). Human HCT116 cancer cells derived from colorectal carcinoma were diluted 1:1 in Phenol Red-free Matrigel and subcutaneously implanted into the left flank of each mouse at a density of 2.5×10^6 cells in 100 μL. When xenografts reached a minimal volume of 200 mm^3, mice were administered intraperitoneal doses of vehicle or 2.6 or 5.2 μmoles/kg of either unconjugated exatecan (equivalent to 1.15 or 2.3 mg/kg exatecan, respectively) or Compound 11 (equivalent to 10 or 20 mg/kg Compound 11, respectively). Compounds were administered once daily for 4 days.
Tumor bearing mice were euthanized by cervical dislocation 6 hours after the last dose. Femurs were removed, and bone marrow was extruded into 50 mL conical tubes by flushing the bones with a 23-gauge needle fitted on a 5 cc syringe containing PBS+2% fetal bovine serum. Bone marrow was homogenized by gentle pipetting and filtered through 100 μm nylon mesh filters and cells were pelleted by centrifugation at 1200 rpm for 5 minutes at 4° C. Red blood cells were lysed with 3 mL of lysis buffer for 2 minutes at room temperature. […] Cell pellets were suspended in 5 mL of PBS and cell count was assessed by trypan blue exclusion. […]

The compound `CC[C@@]1(O)C(=O)OCc2c1cc1n(c2=O)Cc2c-1nc1cc(F)c(C)c3c1c2[C@@H](NC(=O)O[C@H]1CCCC[C@@H]1SSC[C@H](NC(=O)[C@H](Cc1c[nH]c2ccccc12)NC(=O)[C@H](CC(C)C)NC(=O)[C@H](CC(C)C)NC(=O)[C@H](CC(=O)O)NC(=O)[C@H](CC(C)C)NC(=O)[C@H](CC(C)C)NC(=O)[C@H](CC(C)C)NC(=O)[C@@H](NC(=O)[C@H](CC(=O)O)NC(=O)[C@@H](NC(=O)[C@@H]1CCCN1C(=O)[C@H](Cc1ccccc1)NC(=O)[C@H](CC(C)C)NC(=O)[C@H](CC(C)C)NC(=O)[C@H](CC(=O)O)NC(=O)[C@H](CC(C)C)NC(=O)[C@H](Cc1ccc(O)cc1)NC(=O)[C@H](C)NC(=O)[C@H](CCCNC(=N)N)NC(=O)[C@H](Cc1c[nH]c2ccccc12)NC(=O)[C@@H]1CCCN1C(=O)[C@H](CC(N)=O)NC(=O)[C@H](CCC(N)=O)NC(=O)[C@H](CC(=O)O)NC(=O)[C@H](CC(=O)O)NC(=O)[C@H](C)N)[C@@H](C)O)[C@@H](C)O)C(=O)NCC(=O)O)CC3` [Compound 11] yielded an amount remaining at 4 h, 100 µM in data set [1] (4 h) of 50.1%. In addition, the amount remaining at 24 h, 100 µM in data set [1] (24 h) is 10.2%. In data set [2], the negative logarithm of the IC50 (pIC50) was 7.65. The “peptide concentration in tumor and bone marrow (tumor targeting)” value in data set [3] is given as “effectively targets tumors”. Also, in data set [4], the “bone marrow toxicity (total bone marrow counts from femurs)” value is given as “did not display the bone marrow toxicity”.
